Experiment [1] concerns the target T1, EpCAM (KSA) (human, UniProt P16422).
T1 chain: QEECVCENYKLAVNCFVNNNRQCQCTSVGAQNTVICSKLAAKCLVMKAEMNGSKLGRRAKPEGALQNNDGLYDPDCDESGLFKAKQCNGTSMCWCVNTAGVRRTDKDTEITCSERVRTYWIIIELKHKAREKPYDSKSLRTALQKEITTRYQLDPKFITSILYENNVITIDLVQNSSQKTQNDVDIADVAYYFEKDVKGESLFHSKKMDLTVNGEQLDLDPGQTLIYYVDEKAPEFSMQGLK
Put plainly: SPR.

Experiment [2] deals with T1, EpCAM (KSA). In words: ELISA. (An ELISA detects its analyte on a solid surface through an enzyme-linked reagent.)
Experiment [3] concerns the target T1, EpCAM (KSA). Put plainly: SPR. For orientation: SPR reads the build-up and loss of mass on a sensor chip optically.
The target in experiment [4] is T1, EpCAM (KSA). In words: ELISA.

Like-named read-outs stand apart in the source and are kept apart here.

As a reminder, the Kd is the free concentration of one partner at which half of the binding sites on the other are occupied at equilibrium, for simple one-to-one binding. Low readings indicate tighter binding, high ones weaker binding.

B1: VK8/VH7-IL2 (antibody, V domains shown)
VH: QIQLVQSGAEVKKPGETVKISCKASGYTFTNYGMNWVKQTPGKGLKWMGWINTYTGEPTYADDFKGRFAFSLETSTSTAFLQINNLRSEDTATYFCVRFISKGDYWGQGTSVTVSS
VL: EIVLTQSPATLSLSPGERVTLTCSASSSVSYMLWYQQKPGSSPKPWIFDTSNLASGFPARFSGSGSGTSYSLIISSMEAEDAATYYCHQRSGYPYTFGGGTKLEIK
Molecule B1 gave a Kd in the experiment with EpCAM (KSA) [1] of 1 nM.

B2: '369 chKS-1/4 (VK0/VH'369) (antibody, V domains shown)
VH: QIQLVQSGPELKKPGETVKISCKASGYTFTNYGMNWVKQTPGKGLKWMGWINTYTGEPTYADDFKGRFAFSLETSASTAFLQIQQPQNMRTMATYFCVRFISKGDYWGQGTSVTVSS
VL: QILLTQSPAIMSASPGEKVTMTCSASSSVSYMLWYQQKPGSSPKPWIFDTSNLASGFPARFSGSGSGTSYSLIISSMEAEDAATYYCHQRSGYPYTFGGGTKLEIK
With B2, in the experiment with EpCAM (KSA) [2], the binding result was “no binding”.

B3: VK0/VH0 (hybridoma chKS-1/4) (antibody, V domains shown)
VH: QIQLVQSGPELKKPGETVKISCKASGYTFTNYGMNWVRQAPGKGLKWMGWINTYTGEPTYADDFKGRFVFSLETSASTAFLQLNNLRSEDTATYFCVRFISKGDYWGQGTSVTVSS
VL: QILLTQSPAIMSASPGEKVTMTCSASSSVSYMLWYQQKPGSSPKPWIFDTSNLASGFPARFSGSGSGTSYSLIISSMEAEDAATYYCHQRSGYPYTFGGGTKLEIK
As to B3, the Kd with EpCAM (KSA) [3] turned out to be 1 nM.

B4: VK8/VH7 (Construct 3) (antibody, V domains shown)
VH: QIQLVQSGAEVKKPGETVKISCKASGYTFTNYGMNWVKQTPGKGLKWMGWINTYTGEPTYADDFKGRFAFSLETSTSTAFLQINNLRSEDTATYFCVRFISKGDYWGQGTSVTVSS
VL: EIVLTQSPATLSLSPGERVTLTCSASSSVSYMLWYQQKPGSSPKPWIFDTSNLASGFPARFSGSGSGTSYSLIISSMEAEDAATYYCHQRSGYPYTFGGGTKLEIK
B4 yielded a Kd with EpCAM (KSA) [3] of 1 nM.

B5: VK6/VH6 (Construct 1) (antibody, V domains shown)
VH: QVQLVQSGAEVKKPGESVKISCKASGYTFTNYGMNWVRQAPGKGLEWMGWINTYTGEPTYAQKFQGRVTISLDTSTSTAYLQLSSLRAEDTAVYFCVRFISKGDYWGQGTSVTVSS
VL: EIVLTQSPATLSLSPGERVTLTCSASSSVSYMLWYQQKPGQAPKLLIFDTSNLASGIPARFSGSGSGTDYTLTISSLEPEDFAVYYCHQRSGYPYTFGGGTKLEIK
As to B5, the binding result in the experiment with EpCAM (KSA) [4] is “no binding”.

B6: VK1/VH1-IL2 (antibody, V domains shown)
VH: QIQLVQSGPELKKPGSSVKISCKASGYTFTNYGMNWVRQAPGKGLKWMGWINTYTGEPTYADDFKGRFTITAETSTSTLYLQLNNLRSEDTATYFCVRFMSKGDYWGQGTTVTVSS
VL: QIVLTQSPASLAVSPGQRATITCSASSSVSYILWYQQKPGQPPKPWIFDTSNLASGFPSRFSGSGSGTSYTLTINSLEAEDAATYYCHQRSGYPYTFGGGTKVEIK
For the molecule B6, the Kd with EpCAM (KSA) [1] stood at 7.9 nM.

B7: VK1/VH2-IL2 (antibody, V domains shown)
VH: QIQLVQSGPELKKPGSSVKISCKASGYTFTNYGMNWVRQAPGKGLKWMGWINTYTGEPTYADDFKGRFTITAETSTSTLYLQLNNLRSEDTATYFCVRFISKGDYWGQGTTVTVSS
VL: QIVLTQSPASLAVSPGQRATITCSASSSVSYILWYQQKPGQPPKPWIFDTSNLASGFPSRFSGSGSGTSYTLTINSLEAEDAATYYCHQRSGYPYTFGGGTKVEIK
B7: in the experiment with EpCAM (KSA) [1], the Kd worked out at 3.1 nM.

(Values after patent US6969517 (dated 2005).)
